Biological target: latrunculin B bound actin (A. castellani actin monomer) (A. castellani)
Test: fluorescence polarisation

Substance “Spir second WH2 domain (SB) (domain or fragment)” has a Kd of 90 nM.
